In this data set the test system is K4 kissing-loop RNA reporter. Put plainly: apparent KD of K4 kissing-loop reporter; higher = weaker reporter binding. As to conditions: Eterna round: R107. The method, then: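 RNA-MaP round R107: designed RNA switches with theophylline, tryptophan, arginine or FMN aptamers are transcribed on-chip within common flanks. They are titrated with a labelled K4 kissing-loop RNA reporter in RNA-MaP buffer (100 mM Tris pH 7.5, 80 mM KCl, 4 mM MgCl2), without ligand or with the indicated ligand. Median apparent KD per design.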

Where [1] appears, read: input ligand: theophylline 20 uM.
[2] abbreviates: input ligand: tryptophan 2.4 mM.
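Note: bound reporter read as fluorescence of individual clusters on recovered sequencing chips by microscopy, with normalized cluster intensities fitted with a binding model.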

On to “UGUCGAGUGAUGUUCGAUUUGGUGCAUGCAGAGGAUAUAGGGUGGGCUAGAAGGCUGAAAAGUGCUUCGAGUGAUGUUCGAAGUU [Exclusion FMN A GF10]”, for which the “apparent KD of K4 kissing-loop reporter” value by setting is: (input ligand: FMN 200 uM) 117 nM; (input ligand: arginine 13.2 mM) 113 nM; (input ligand: none) 100 nM; under setting [1], 100 nM; under setting [2], 97.3 nM.

Take “UGAUGUUUAGGUCACCCAGUGAUGUUGGAAGGAGCGUGCGAAAGCACAGGUAGGUCGCCAAUCUCCUUGUGACCUGAGCAUCUAA [#SwitchBubble 14 #K4Early]”: the “apparent KD of K4 kissing-loop reporter” value turned out to be 976 nM (input ligand: FMN 200 uM); 787 nM (input ligand: arginine 13.2 mM); 1050 nM (input ligand: none); 979 nM under setting [1]; 854 nM under setting [2].

As for “ACUCUUGCGUAUGAUACCAGCUUGUACCGCCACAUAUAUUCUAAGAGUUGAGUGAUGUUUAGCCCUUGGCAGCAUACUUGUGCGU [theeternabot_exclusion_KL_Theo_B_42]”, the “apparent KD of K4 kissing-loop reporter” value by setting is: (input ligand: FMN 200 uM) 706 nM; (input ligand: arginine 13.2 mM) 546 nM; (input ligand: none) 778 nM; under setting [1], 606 nM; under setting [2], 702 nM.

“UAUACUAGACAAGAGAGAAUUCUCUCAAGAGAGGAUAUCCGAAUUCGGAGAAGGCUCUCUCAGUGAUGUUGGGUAUAGUCUAGAA [AK7 SS FMN A]”: the “apparent KD of K4 kissing-loop reporter” value is 260 nM (input ligand: FMN 200 uM); 222 nM (input ligand: arginine 13.2 mM); 323 nM (input ligand: none); 389 nM under setting [1]; 299 nM under setting [2].

As for “ACACUAUCGUCAUAGACGGUAGUGAAAAGUGAGGAUAUGAGUGAUGUUAGAAGGCACUAAGACUGUAUCGAAUAGAUACAGUCAA [FmnA 4 #K4BetweenAptamer #OpenEnded]”, the “apparent KD of K4 kissing-loop reporter” value is 803 nM (input ligand: FMN 200 uM); 262 nM (input ligand: arginine 13.2 mM); 384 nM (input ligand: none); 292 nM under setting [1]; 349 nM under setting [2].

Regarding “GUUUCAGUGAUGUUGGAAGGCGAGCGGGAUACCAGCCAAGACUCAGGCCCUUGGCAGCCCACAUAUCCCACGUAGAUAGUAGCUC [Same State - Theophylline A (Freestyle 14)]”, the “apparent KD of K4 kissing-loop reporter” value reads like this: (input ligand: FMN 200 uM) 161 nM; (input ligand: arginine 13.2 mM) 116 nM; (input ligand: none) 133 nM; under setting [1], 153 nM; under setting [2], 137 nM.

Turning to “AUGCGGUGGAGGCUACCGCUAUUCUGAGAAGGAGCGCAGAUGACUGCAGGUAGGUCGCUUAGAGCUUGCAGUGAUGUUGCAAGUU [Islatimaed]”, the “apparent KD of K4 kissing-loop reporter” value was found to be 200 nM (input ligand: FMN 200 uM); 168 nM (input ligand: arginine 13.2 mM); 191 nM (input ligand: none); 174 nM under setting [1]; 204 nM under setting [2].

As for “GGGAGUAGUGCGGCCGCCACUGAGAAAGAAGAAGAAUAUAGUGAUGUUAUAUAGGAAUAAAAGAAUAGGACCGGGCAUUAGAUUU [SSTRyptB.S]”, the “apparent KD of K4 kissing-loop reporter” value stood at 165 nM (input ligand: FMN 200 uM); 245 nM (input ligand: arginine 13.2 mM); 269 nM (input ligand: none); 215 nM under setting [1]; 159 nM under setting [2].

Regarding “CGGAUGUAGUGAUGUUAUAUUAGAUGUAGACGAGGACCGGUACGGCCGCCACUCGUGAUGGCUGCUAGCACGUUUCGAUGUUUGC [ExTryptoA.Cq]”, the “apparent KD of K4 kissing-loop reporter” value is, setting by setting: (input ligand: FMN 200 uM) 669 nM; (input ligand: arginine 13.2 mM) 483 nM; (input ligand: none) 624 nM; under setting [1], 611 nM; under setting [2], 434 nM.

For the sequence “AUCGAUAUCAGAGGAUAUGCUUAAUAGAUUUAUUAUUAUCUAUUAUGCAGUGAUGUUGCAUAUUUUGCAGAAGGCUGAUUUCGAA [JR_SSFMNB_Sub019]”, the “apparent KD of K4 kissing-loop reporter” value reads like this: (input ligand: FMN 200 uM) 124 nM; (input ligand: arginine 13.2 mM) 433 nM; (input ligand: none) 447 nM; under setting [1], 429 nM; under setting [2], 403 nM.

For the sequence “CCUAUCUCAUACGAUACCAGUGAAUUAAUAUUUAUAAGCAGUGAUGUUGCAUUCCAAGUACACCCUUGGCAGCGUAUGGGAUAGG [Ex Theophylline B K4 20]”, the “apparent KD of K4 kissing-loop reporter” value was 147 nM (input ligand: FMN 200 uM); 151 nM (input ligand: arginine 13.2 mM); 151 nM (input ligand: none); 159 nM under setting [1]; 120 nM under setting [2].

Take “GUAAGAUGAGGAGGAGGAUGAAUUACUGAAGGAGCGCAUAUAAAUGCAGGUAGGUCGCGGUAAAGAAGUAUAGUGAUGUUAUAUA [#20 K4 Arginine A Same State]”: the “apparent KD of K4 kissing-loop reporter” value reads like this: (input ligand: FMN 200 uM) 452 nM; (input ligand: arginine 13.2 mM) 508 nM; (input ligand: none) 464 nM; under setting [1], 459 nM; under setting [2], 474 nM.

Take “UAAUAUAAUCUGUCGUUUACAAUAUUUAGUCAGGAUAUCGUAUAUUCGAGAAGGGACACUAUCUAGUGAUGUUAGAUAUUUCUUU [JR_ExcFMNA_Sub014]”: the “apparent KD of K4 kissing-loop reporter” value is, setting by setting: (input ligand: FMN 200 uM) 47.9 nM; (input ligand: arginine 13.2 mM) 78.1 nM; (input ligand: none) 55.9 nM; under setting [1], 67 nM; under setting [2], 51.9 nM.

Turning to “AGGCACGAGCAAGGAUAUCGAGUAGAGUGAUGUUCUGCCUGGGUUGGCUCGCAAGAGCCUUCUCAGCGAGAAGGUGCUCGUGCCU [#2 Same State - FMN A Attempt #18 (HarryS)]”, the “apparent KD of K4 kissing-loop reporter” value (input ligand: FMN 200 uM) was 176 nM; the “apparent KD of K4 kissing-loop reporter” value (input ligand: arginine 13.2 mM) was 602 nM; the “apparent KD of K4 kissing-loop reporter” value (input ligand: none) is 946 nM; the “apparent KD of K4 kissing-loop reporter” value under setting [1] is 595 nM; the “apparent KD of K4 kissing-loop reporter” value under setting [2] was found to be 640 nM.

As to “AAGCAGUCUCUUGUAGUCAUCGAAGAUGAACGAGGACCGGUACGGCCGCCACUCGGAGUGAUGUUCCGAAGACUGCAAAAUAAAA [MatMod 17 - Jieux - Exclusion - Tryptophan A]”, the “apparent KD of K4 kissing-loop reporter” value is, setting by setting: (input ligand: FMN 200 uM) 581 nM; (input ligand: arginine 13.2 mM) 422 nM; (input ligand: none) 1010 nM; under setting [1], 765 nM; under setting [2], 180 nM.

For “GGGUGGCAGGCGGCCGCCACUCUGAGGGUCCACAGUGAUGUUGUGGGCGCGUAAGCGUCUUCAUAGAGGACCGGGUUUGUUGUUC [Same State Tryptophan B GF 24]”, the “apparent KD of K4 kissing-loop reporter” value (input ligand: FMN 200 uM) stood at 422 nM; the “apparent KD of K4 kissing-loop reporter” value (input ligand: arginine 13.2 mM) was 308 nM; the “apparent KD of K4 kissing-loop reporter” value (input ligand: none) turned out to be 454 nM; the “apparent KD of K4 kissing-loop reporter” value under setting [1] was determined as 403 nM; the “apparent KD of K4 kissing-loop reporter” value under setting [2] came out at 338 nM.

Consider “CCCUAAAUAUGCAGUGAUGUUGCAACUGAUACCAGUAUCGAAAGAUACCCUUGGCAGCGGAAAACCGCUACGUAAUUUAAUAGGG [Ex Theophylline A K4 20]”, for which the “apparent KD of K4 kissing-loop reporter” value (input ligand: FMN 200 uM) turned out to be 294 nM; the “apparent KD of K4 kissing-loop reporter” value (input ligand: arginine 13.2 mM) worked out at 393 nM; the “apparent KD of K4 kissing-loop reporter” value (input ligand: none) came to 387 nM; the “apparent KD of K4 kissing-loop reporter” value under setting [1] is 402 nM; the “apparent KD of K4 kissing-loop reporter” value under setting [2] was determined as 285 nM.

(Values after the supplement of paper PMC9170038.)
